Laboratory results reported in US20250277029A1 (Amgen, published 2025).

B1: LIBC523797-1 (antibody, V domains shown)
VH: QVQLQESGPGLVKPSQTLSLTCTVSGGSIRRGGDYWSWIRQHPGKGLEWIGHVYYTGSTKYNPNFKGRATISVNTYKNQFSLKLSSVTAADTAVYYCARDYDILTGYSYYYYGMDVWGQGTTVTVSS
VL: DIVMTQSPLSLPVTPGEPASISCRSSQSLLTSYGINYVDWYLQKPGQSPQLLIYQGSNRASGVPDRFSGSGSGTDFTLKISRVEAEDVGVYYCRQAVGLPRTFGQGTKVEIKR
notes: Expressed as IgG1 SEFL2 mAb
B2: LIBC528131-1 (antibody, V domains shown)
VH: QVQLQESGPGLVKPSQTLSLTCTVSGGSIRRGGDYWSWIRQHPGKGLEWIGHIYQTGQTAYNPNLEGRATISVNTYKNQFSLKLSSVTAADTAVYYCARDYDILTGYSYYYYGMDVWGQGTTVTVSS
VL: EIVLTQSPATLSLSPGERATLSCRASQSVSSYLGWYQQKPGQAPRLLIYGASSRATGIPDRFSGSGSGTDFTLTISRLEPEDFAVYYCQQYGSSPRTFGQGTKVEIKR
notes: VK3 LC
B3: LIBC527912-1 (antibody, V domains shown)
VH: QVQLQESGPGLVKPSQTLSLTCTVSGGSIRRGGDYWSWIRQHPGKGLEWIGYIYQTGQTKYNPNFEGRATISVNTYKNQFSLKLSSVTAADTAVYYCARDYDILTGYSYYYYGMDVWGQGTTVTVSS
VL: DIQLTQSPSSLSASVGDRVTITCRASQSISSYLNWYQQKPGKAPKLLIYAASSLRSGVPSRFSGSGSGTDFTLTISSLQPEDFATYYCQQYSNYPLTFGGGTRVEIKR
B4: 10D10 HC D83K/LC N35Y (26970-1) (antibody, V domains shown)
VH: QVQLQESGPGLVKPSQTLSLTCTVSGGSIRRGGDYWSWIRQHPGKGLEWIGYIYYSGSTNYNPSLKSRATISVKTSKNQFSLKLSSVTAADTAVYYCARDYDILTGYSYYYYGMDVWGQGTTVTVSS
VL: not shown
notes: Earlier 10D10 variant used as benchmark
B5: LIBC528116-1 (antibody, IgG1, V domains shown)
VH: QVQLQESGPGLVKPSQTLSLTCTVSGGSIRRGGDYWAWIRQHPGKGLEWIGHVYYTGSTNYNPRFKDRATISVNTYKNQFSLKLSSVTAADTAVYYCARNYDTVTGYSYYYYGMDVWGQGTTVTVSS
VL: DIQLTQSPSTLSASVGDRVTITCRASQSISNYLNWYQQKPGKAPKLLIYAASSLHSGVPSRFSGSGSGTDFTLTISSLQPEDFASYYCQQYQSYPLTFGQGTKVEIKR
notes: also called 37940-4
B6: LIBC527879-1 (antibody, V domains shown)
VH: QVQLQESGPGLVKPSQTLSLTCTVSGGSIRRGGDYWGWIRQHPGKGLEWIGHIYQSGSTNYNPKLKSRATISVDTYKNQFSLKLSSVTAADTAVYYCARDYDIFTGYSYYYYGMDVWGQGTTVTVSS
VL: DIQLTQSPSSLSASVGDRVTITCRASQSIISYLNWYQQKPGKAPKLLIYAASSLRSGVPSRFSGSGSGTDFTLTISSLQPEDFATYYCQQYSNYPLTFGGGTRVEIKR
B7: LIBC523797-1 (antibody, IgG1, V domains shown)
VH: QVQLQESGPGLVKPSQTLSLTCTVSGGSIRRGGDYWSWIRQHPGKGLEWIGHVYYTGSTKYNPNFKGRATISVNTYKNQFSLKLSSVTAADTAVYYCARDYDILTGYSYYYYGMDVWGQGTTVTVSS
VL: DIVMTQSPLSLPVTPGEPASISCRSSQSLLTSYGINYVDWYLQKPGQSPQLLIYQGSNRASGVPDRFSGSGSGTDFTLKISRVEAEDVGVYYCRQAVGLPRTFGQGTKVEIKR
B8: LIBC527827-1 (antibody, V domains shown)
VH: QVQLQESGPGLVKPSQTLSLTCTVSGGSIRRGGDYWGWIRQHPGKGLEWIGHVYQSGQTAYNPKFENRATISVKTYKNQFSLKLSSVTAADTAVYYCARNYDTLTGHSYYYYGMDVWGQGTTVTVSS
VL: DIQMTQSPSTLSASVGDRVTITCRASQSISNYLNWYQQKPGKAPKLLIYAASSLHSGVPSRFSGSGSGTDFTLTISSLQPEDFASYYCQQYQSYPLTFGQGTKVEIKR
notes: also called LIBC527827-1 + VK1 germline fix(es)
B9: LIBC527869-1 (antibody, V domains shown)
VH: QVQLQESGPGLVKPSQTLSLTCTVSGGNIRRGGDYWAWIRQHPGKGLEWIGHIYHTGKTNYNPSFKGRATISVKTYKNQFSLKLSSVTAADTAVYYCARNYDTLSGNSYYYYGMDVWGQGTTVTVSS
VL: DIQLTQSPSTLSASVGDRVTITCRASQSISNYLNWYQQKPGKAPKLLIYAASSLHSGVPSRFSGSGSGTDFTLTISSLQPEDFASYYCQQYQSYPLTFGQGTKVEIKR
notes: also called LIBC527869-1 + VK1 germline fix(es)
B10: LIBC527984-1 (antibody, V domains shown)
VH: QVQLQESGPGLVKPSQTLSLTCTVSGGSIRRGGDYWSWIRQHPGKGLEWIGHIYQTGKTNYNPNFKSRATISVNTYKNQFSLKLSSVTAADTAVYYCARDYDILTGYSYYYYGMDVWGQGTTVTVSS
VL: DIQMTQSPSTLSASVGDRVTITCRASQSISNYLNWYQQKPGKAPKLLIYAASSLHSGVPSRFSGSGSGTDFTLTISSLQPEDFASYYCQQYQSYPLTFGQGTKVEIKR
notes: also called LIBC527984-1 + VK1 germline fix(es)
B11: LIBC527968-1 (antibody, V domains shown)
VH: QVQLQESGPGLVKPSQTLSLTCTVSGGSIRRGGDYWSWIRQHPGKGLEWIGHIYQSGSTKYNPSFKDRATISVNTYKNQFSLKLSSVTAADTAVYYCARDYDILTGYSYYYYGMDVWGQGTTVTVSS
VL: DIQLTQSPSTLSASVGDRVTITCRASQSISNYLNWYQQKPGKAPKLLIYAASSLHSGVPSRFSGSGSGTDFTLTISSLQPEDFASYYCQQYQSYPLTFGQGTKVEIKR
notes: also called LIBC527968-1 + VK1 germline fix(es)
B12: LIBC528141-1 (antibody, V domains shown)
VH: QVQLQESGPGLVKPSQTLSLTCTVSGGSIRRGGDYWSWIRQHPGKGLEWIGHVYQTGSTKYNPRFKGRATISVNTYKNQFSLKLSSVTAADTAVYYCARDYDILTGYSYYYYGMDVWGQGTTVTVSS
VL: DIQLTQSPSTLSASVGDRVTITCRASQSISNYLNWYQQKPGKAPKLLIYAASSLHSGVPSRFSGSGSGTDFTLTISSLQPEDFASYYCQQYQSYPLTFGQGTKVEIKR
B13: LIBC528169-1 (antibody, V domains shown)
VH: QVQLQESGPGLVKPSQTLSLTCTVSGGSIRRGGDYWSWIRQHPGKGLEWIGHIYQSGSTKYNPSFEDRATISVNTYKNQFSLKLSSVTAADTAVYYCARDYDILTGYSYYYYGMDVWGQGTTVTVSS
VL: DIQLTQSPSTLSASVGDRVTITCRASQSISNYLNWYQQKPGKAPKLLIYAASSLHSGVPSRFSGSGSGTDFTLTISSLQPEDFASYYCQQYQSYPLTFGQGTKVEIKR
notes: also called LIBC528169-1 + VK1 germline fix(es)
B14: LIBC527906-1 (antibody, V domains shown)
VH: QVQLQESGPGLVKPSQTLSLTCTVSGGSIRRGGDYWGWIRQHPGKGLEWIGHIYQTGSTNYNPNFKDRATISVDTYKNQFSLKLSSVTAADTAVYYCARDYDILTGYSYYYYGMDVWGQGTTVTVSS
VL: DIQLTQSPSTLSASVGDRVTITCRASQSISNYLNWYQQKPGKAPKLLIYAASSLHSGVPSRFSGSGSGTDFTLTISSLQPEDFASYYCQQYQSYPLTFGQGTKVEIKR
notes: also called LIBC527906-1 + VK1 germline fix(es)

What was measured:
[1] = molecular target: human cannabinoid receptor 1 (huCB1), full length, expressed on cells (human, UniProt P21554 1-472); assay: cell-based or functional assay
huCB1 nanodisc (CB1-ND) = molecular target: T1, huCB1 nanodisc (CB1-ND) (human, UniProt P21554 99-414); assay: Octet BLI; antibody captured by anti-human Fc, CB1-nanodisc in solution, 1:1 model
T1 construct: The His-tagged CB1 is embedded in a POPC lipid nanodisc with MSP1D1 scaffold protein (molar ratio 480:8:1); also called huCB1-ND; #CB1-008

[2] = molecular target: T2, GFP-fused huCB1-SMALP (human CB1 in styrene maleic acid lipoparticles) (human, UniProt P21554 1-472); assay: flow cytometry, yeast-displayed IgG, GFP MFI
T2 construct: Prepared as in Luna V. et al. 2018; also called huCB1-GFP-SMALP; wtCB1-SMALP; not shown: GFP fusion

[3] = molecular target: T3, empty-ND (nanodisc without CB1); assay: flow cytometry, yeast-displayed IgG, binding/display ratio
T3 construct: its only protein is the nanodisc scaffold; also called Empty Nanodisc

[4] = molecular target: T4, His-tagged huCB1-ND (human CB1 in nanodisc) (human); assay: as above
T4 construct: CB1 construct of Cell 167(3) (2016) 750-762 expressed in Sf9 cells; POPC:MSP1D1:CB1 480:8:1; also called CB1-nanodisc; huCB1-Nanodisc; not shown: histidine purification tag

mouse CB1 = molecular target: T5, mouse CB1 (mouse, UniProt P47746 1-473); assay: fold over mock (Table 14)
T5 construct: also called muCB1; murine CB1

[5] = molecular target: T6, human cannabinoid receptor type 2 (CB2) (human, UniProt P34972 1-360); assay: fold over mock (Table 14)
T6 construct: also called huCB2; full length hu CB2

[6] = molecular target: T2, GFP-fused huCB1-SMALP (human CB1 in …); assay: flow cytometry, yeast-displayed IgG, GFP MFI; remark: listed apart in the source

Chain of human cannabinoid receptor 1 (huCB1), full length, expressed on cells (P21554 whole entry): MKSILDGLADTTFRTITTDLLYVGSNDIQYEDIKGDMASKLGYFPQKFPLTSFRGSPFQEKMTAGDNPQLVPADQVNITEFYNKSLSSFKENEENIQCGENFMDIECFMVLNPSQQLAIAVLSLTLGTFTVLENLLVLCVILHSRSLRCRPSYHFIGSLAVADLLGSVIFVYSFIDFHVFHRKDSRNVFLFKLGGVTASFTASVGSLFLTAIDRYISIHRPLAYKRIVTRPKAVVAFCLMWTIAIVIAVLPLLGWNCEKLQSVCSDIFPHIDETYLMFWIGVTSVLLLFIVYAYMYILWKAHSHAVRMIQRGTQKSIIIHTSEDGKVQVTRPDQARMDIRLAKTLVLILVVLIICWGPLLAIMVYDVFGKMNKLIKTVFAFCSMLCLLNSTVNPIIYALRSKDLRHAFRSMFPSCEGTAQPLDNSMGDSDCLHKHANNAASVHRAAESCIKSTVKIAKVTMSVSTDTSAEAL
T2 sequence (P21554 whole entry, the tested form may be a part): as the sequence (P21554 whole entry) above
T5 sequence (P47746 whole entry): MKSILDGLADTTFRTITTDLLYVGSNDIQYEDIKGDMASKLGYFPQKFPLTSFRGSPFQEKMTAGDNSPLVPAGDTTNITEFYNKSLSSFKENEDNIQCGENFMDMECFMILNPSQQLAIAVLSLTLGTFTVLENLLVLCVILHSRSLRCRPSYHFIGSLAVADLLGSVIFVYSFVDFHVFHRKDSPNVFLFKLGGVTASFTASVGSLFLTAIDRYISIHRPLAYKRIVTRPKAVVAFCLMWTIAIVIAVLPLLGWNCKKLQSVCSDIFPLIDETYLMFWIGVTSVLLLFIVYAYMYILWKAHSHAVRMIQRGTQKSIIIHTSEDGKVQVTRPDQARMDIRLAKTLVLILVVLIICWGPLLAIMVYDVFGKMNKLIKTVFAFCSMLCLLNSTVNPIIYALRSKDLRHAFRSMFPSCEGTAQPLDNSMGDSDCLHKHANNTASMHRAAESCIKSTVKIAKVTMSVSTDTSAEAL
T6 sequence (P34972 whole entry): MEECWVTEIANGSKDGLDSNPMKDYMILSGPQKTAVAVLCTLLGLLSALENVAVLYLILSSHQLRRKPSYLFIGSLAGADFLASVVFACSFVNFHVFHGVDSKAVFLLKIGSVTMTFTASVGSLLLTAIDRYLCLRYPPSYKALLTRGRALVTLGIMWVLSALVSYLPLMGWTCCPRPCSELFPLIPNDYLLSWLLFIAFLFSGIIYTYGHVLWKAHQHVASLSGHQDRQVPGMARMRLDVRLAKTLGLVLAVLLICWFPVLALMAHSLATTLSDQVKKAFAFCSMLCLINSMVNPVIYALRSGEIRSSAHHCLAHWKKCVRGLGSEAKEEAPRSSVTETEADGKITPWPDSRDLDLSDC
T4 sequence (P21554 99-414): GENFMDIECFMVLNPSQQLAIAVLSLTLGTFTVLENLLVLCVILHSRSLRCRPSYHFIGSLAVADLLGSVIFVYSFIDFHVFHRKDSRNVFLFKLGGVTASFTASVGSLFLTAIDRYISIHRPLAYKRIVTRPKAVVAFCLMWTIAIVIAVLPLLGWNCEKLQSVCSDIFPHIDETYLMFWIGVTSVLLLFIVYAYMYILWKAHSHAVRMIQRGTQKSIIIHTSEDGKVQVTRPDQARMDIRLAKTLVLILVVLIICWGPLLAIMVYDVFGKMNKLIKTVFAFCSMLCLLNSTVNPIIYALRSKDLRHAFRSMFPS
T1 sequence (P21554 99-414 limits assumed): as the sequence (P21554 99-414) above

Row | Binder | 100 nM huCB1-GFP-SMALP binding (normalized to 10D10N35Y) [2] | 50.0 nM Empty Nanodisc binding (relative to 10D10N35Y) [3] | 0.200 nM huCB1-Nanodisc binding (relative to 10D10N35Y) [4] | also measured
1 | B1 |  |  |  | Antagonist assay IC50 (nM), 2-AG [1]: 2.9 nM; Antagonist assay IC50 (nM), Anandamide [1]: 10.4 nM; Antagonist assay IC50 (nM), CP 55,940 [1]: 3.4 nM; Inverse agonist assay IC50 [1]: 14.1 nM; Kd (huCB1 nanodisc (CB1-ND)): 18 nM
2 | B2 | 3.68 fold | 0.63 fold | 4.47 fold | 
3 | B3 | 4.32 fold | 0.51 fold | 5.95 fold | 
4 | B4 |  |  |  | binding result (mouse CB1): no binding; binding result [5]: no binding
5 | B5 | 5.8 fold |  |  | binding result (mouse CB1): no binding; binding result [5]: no binding
6 | B6 | 3.24 fold | 0.73 fold | 5.75 fold | 
7 | B7 |  |  |  | 100 nM huCB1-SMALP binding (normalized to 10D10) [6]: 7.01 fold; binding result (mouse CB1): no binding; binding result [5]: no binding
8 | B8 | 4.99 fold | 1.16 fold | 4.31 fold | 
9 | B9 | 3.61 fold | 0.97 fold | 4.15 fold | 
10 | B10 | 4.85 fold | 0.61 fold | 5.21 fold | 
11 | B11 | 4.65 fold | 0.64 fold | 4.86 fold | 
12 | B12 | 8.31 fold | 0.49 fold | 6.2 fold | 
13 | B13 | 4.58 fold | 0.68 fold | 4.82 fold | 
14 | B14 | 3.79 fold | 0.51 fold | 8.02 fold | 
